# Experimental data: US20230107004, “[…] ELECTROCHEMICAL BIOSENSOR” (THE GOVERNING COUNCIL OF THE UNIVERSITY OF TORONTO, published 2023)
# B1: CoV2-RBD-4C aptamer-P2 hybridized to P1 (iMP) (mixed)
# DNA 1: ATCCAGAGTGACGCAGCATTTCATCGGGTCCAAAAGGGGCTGCTCGGGATTGCGGATATGGACACGTTTTTCTTATTAGATACAATAGCTGGTA
# DNA 2: TACCAGCTATTGTATCTAATAAGA
# modifications: P1 strand 5'-thiol-MC6 on gold electrode, 3'-NH2 conjugated to ferrocene
# Biological target: SARS-CoV-2 spike (S/S1) protein (SARS-CoV-2, UniProt P0DTC2 P0DTC2:14-685)
binder,measurement,value
B1,binding result,binds
